Here are results for 28 molecules from patent publication US20220332795A1.

B1: SEQ ID NO 99 (designed binder, not shown: small tags and cut ends)
chain: MLPAPKNLVVSRVTEDSARLSWTAPDAAFDSFFIPYAEPSPTGEAIVLTVPGSERSYDLTGLKPGTEYSVLIHGVKGGHLSDPLSVIFTT
B2: SEQ ID NO 21 (designed binder, not shown: small tags and cut ends)
chain: MLPAPKNLVVSRVTEDSARLSWTAPDAAFDSFSIRYNEFIVAGEAIVLTVPGSERSYDLTGLKPGTEYDVPIAGVKGGGASWPLSAIVTT
B3: SEQ ID NO 22 (designed binder, not shown: small tags and cut ends)
chain: MLPAPKNLVVSRVTEDSARLSWTAPDAAFDSFWYLELQFAGEAIVLTVPGSERSYDLTGLKPGTEYNVPITGVKGGIISFPLSAIFTT
B4: SEQ ID NO 29 (designed binder, not shown: small tags and cut ends)
chain: MLPAPKNLVVSRVTEDSARLSWTAPDAAFDSFWIEYWEAVGFGEAIVLTVPGSERSYDLTGLKPGTEYFVGIYGVKGGYLSAPLSAIFTT
B5: SEQ ID NO 31 (designed binder, not shown: small tags and cut ends)
chain: MLPAPKNLVVSRVTEDSARLSWTAPDAAFDSFTIEYSEHPIDGEAIPLFVPGSERSYDLTGLKPGTEYYVRIHGVKGGWFSHPLWAFFTT
B6: SEQ ID NO 13 (designed binder, not shown: small tags and cut ends)
chain: MLPAPKNLVVSRVTEDSARLSWTAPDAAFDSFLIAYPEDGFRGEAIVLTVPGSERSYDLTGLKPGTEYPVPILGVKGGGGSGPLSAIFTT
B7: SEQ ID NO 17 (designed binder, not shown: small tags and cut ends)
chain: MLPAPKNLVVSRVTEDSARLSWTAPDAAFDSFPILYTECVYRGEAIVLTVPGSERSYDLTGLKPGTEYHVPITGVKGGGGSWPLSAIFTT
B8: SEQ ID NO 18 (designed binder, not shown: small tags and cut ends)
chain: MLPAPKNLVVSRVTEDSARLSWTAPDAAFDSFNIMYHEIIYVGEAIVLTVPGSERSYDLTGLKPGTEYPVPIEGVKGGGTSGPLSAIFTT
B9: SEQ ID NO 34 (designed binder, not shown: small tags and cut ends)
chain: MLPAPKNLVVSRVTEDSARLSWTAPDAAFDSFYITYVELNLAGEAIVLTVPGSERSYDLTGLKPGTEYPVPILGVKGGSLSQPLSAIFTT
B10: SEQ ID NO 33 (designed binder, not shown: small tags and cut ends)
chain: MLPAPKNLVVSRVTEDSARLSWTAPDAAFDSFGIAYVESYWYGEAIVLTVPGSERSYDLTGLKPGTEYNVPIYGVKGGDGSGPLSAIFTT
B11: SEQ ID NO 19 (designed binder, not shown: small tags and cut ends)
chain: MLPAPKNLVVSRVTEDSARLSWTAPDAAFDSFAITYTEAALCGEAIVLTVPGSERSYDLTGLKPGTEYPVPINGVKGGGTSGPLSAIFTT
B12: SEQ ID NO 23 (designed binder, not shown: small tags and cut ends)
chain: MLPAPKNLVVSRVTEDSARLSWTAPDAAFDSFAIWYHEWYGDGEAIVLTVPGSERSYDLTGPKPGTEYRVRISGVKGGFESGPLSAIFTT
B13: SEQ ID NO 30 (designed binder, not shown: small tags and cut ends)
chain: MLPAPKNLVVSRVTEDSARLSWTAPDAAFDSFIIHYVEQQLIGEAIVLTVPGSERSYDLTGLKPGTEYPVPITGVKGGACSWPLSAIFTT
B14: SEQ ID NO 2 (designed binder, not shown: small tags and cut ends)
chain: MLPAPKNLVVSEVTEDSARLSWQGVARAFDSFMINYSELFWMGEAIVLTVPGSERSYDLTGLKPGTEYVVRIKGVKGGKGSWPLHAHFTT
B15: SEQ ID NO 20 (designed binder, not shown: small tags and cut ends)
chain: MLPAPKNLVVARVTEDSARLSWTAPDAAIDSFPIDYSEYWWGGEAIVLTVPGSERSYDLTGLKPGTEYPVLITGVKGGYRSGPLSAIFTT
B16: SEQ ID NO 35 (designed binder, not shown: small tags and cut ends)
chain: MLPAPKNLVVSRVTEDSARLSWTAPDAAFDSFPISYIESIADGEAIVLTVPGSERSYDLTGLKPGTEYWVAIVGVKGGPFSWSLSAIVTT
B17: SEQ ID NO 96 (designed binder, not shown: small tags and cut ends)
chain: MSLPAPKNLVVSRVTEDSARLSWTAPDAAFDSFPIAYLEVFYEGEAIVLTVPGSERSYDLTGLKPGTEYQVPIEGVKGGAMSLPLSAIFTT
B18: SEQ ID NO 102 (designed binder, not shown: small tags and cut ends)
chain: MLPAPKNLVVSRVTEDSARLSWQGVARAFDSFLITYREQIFAGEVIVLTVPGSERSYDLTGLKPGTEYPVWIQGVKGGSPSAPLSAEFTT
B19: SEQ ID NO 32 (designed binder, not shown: small tags and cut ends)
chain: MLPAPKNLVVSRVTEDSARLSWQGVARAFDSFLITYREQIFAGEVIVLTVPGSERSYDLTGLKPGTEYGVTIAGVKGGWRSKPLNAESTT
B20: SEQ ID NO 15 (designed binder, not shown: small tags and cut ends)
chain: MLPAPKNLVVSRVTEDSARLSWQGVARAFDSFLITYREQIFAGEVIVLTVPGSERSYDLTGLKPGTECPVWIQGVKGGSPSAPLSAEFTT
B21: SEQ ID NO 97 (designed binder, not shown: small tags and cut ends)
chain: MLPAPKNLVVSRVTEDSARLSWTAPDAAFDSFHIWYEEETTIGEAIYLHVPGSERSYDLTGLKPGTEYEVHITGVKGGPYSRPLFANFTT
B22: SEQ ID NO 100 (designed binder, not shown: small tags and cut ends)
chain: MLPAPKNLVVSRVTEDSARLSWTAPDAAFDSFYIWYEEVMYLGEAIVLTVPGSERSYDLTGLKPGTEYNVPIPGVKGGHSSPPLSAIFTT
B23: SEQ ID NO 25 (designed binder, not shown: small tags and cut ends)
chain: MLPAPKNLVVSRVTEDSARLSWTAPDAAFDSFPIWYLEKSYQGEAIVLTVPGSERSYDLTGLKPGTEYVVPIIGVKGGRDSCPLSAIFTT
B24: SEQ ID NO 27 (designed binder, not shown: small tags and cut ends)
chain: MLPAPKNLVVSRVTEDSARLSWTAPDAAFDSFRISYAETVRQGEAIVLTVPGSERSYDLTVETGYRNWVMILGVKGGPGSLPLSAIFTT
B25: SEQ ID NO 24 (designed binder, not shown: small tags and cut ends)
chain: MLPAPKNLVVSRVTEDSARLSWTAPDAAFDSFMIRYQEGTRWGEAIVLTVPGSERSYDLTGLKPGTEYIVMIAGVKGGQISLPLSAIFTT
B26: SEQ ID NO 3 (designed binder, not shown: small tags and cut ends)
chain: MLPAPKNLVVSRVTEDSARLSWTAPDAAFDSFNIEYAETRWYGEAIVLTVPGSERSYDLTGLKPGTEYVVPIDGVKGGIASKPLSAIFTT
B27: SEQ ID NO 241 (designed binder, not shown: small tags and cut ends)
chain: MLPAPKNLVVSRVTEDSARLSWTAPDAAFDSFFIGYLEPQPPGEAIHLGVPGSERSYDLTGLKPGTEYNVTIQGVKGGFPSIPLFASFTT
B28: SEQ ID NO 242 (designed binder, not shown: small tags and cut ends)
chain: MLPAPKNLVVSRVTEDSARLSWTAPDAAFDSFYIAYAEPRPDGEAIQLLVPGSERSYDLTGLKPGTEYSVLIHGVKGGLLSSPLYAAFTT

For one assay, the target named is human serum albumin (human) (UniProt P02768). The assay can be described thus: primary solution ELISA screen.
Chain of human serum albumin (human) (P02768 25-609 limits assumed): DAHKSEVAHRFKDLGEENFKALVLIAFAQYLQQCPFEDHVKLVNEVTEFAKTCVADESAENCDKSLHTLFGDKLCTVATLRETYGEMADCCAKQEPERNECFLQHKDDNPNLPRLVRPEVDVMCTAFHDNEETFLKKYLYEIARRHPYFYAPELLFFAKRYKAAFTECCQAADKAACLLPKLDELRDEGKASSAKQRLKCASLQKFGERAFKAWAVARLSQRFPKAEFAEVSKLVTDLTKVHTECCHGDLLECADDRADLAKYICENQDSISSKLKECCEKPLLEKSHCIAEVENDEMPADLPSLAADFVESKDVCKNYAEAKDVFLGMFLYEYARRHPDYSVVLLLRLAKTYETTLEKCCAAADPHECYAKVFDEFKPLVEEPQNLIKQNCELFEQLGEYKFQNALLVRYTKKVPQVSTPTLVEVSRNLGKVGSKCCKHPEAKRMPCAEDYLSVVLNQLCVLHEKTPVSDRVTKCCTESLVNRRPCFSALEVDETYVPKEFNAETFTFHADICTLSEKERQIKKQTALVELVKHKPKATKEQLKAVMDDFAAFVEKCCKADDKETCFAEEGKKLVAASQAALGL
In turn, B1 returned an RLU of 9850 RLU. B2 had an RLU of 6850 RLU.

As for B3, the RLU came to 30000 RLU. The same measure, in the same setting: for B4 the value was 3750 RLU. Molecule B5 displayed an RLU of 4650 RLU. On the same count and under the same terms, for B6 the value was 24600 RLU; for B7, 3650 RLU; for B8, 10400 RLU. Still for that read-out and setting: for B9 the value was 8100 RLU. B10 returned an RLU of 2050 RLU. The same measure, in the same setting: under B11 stands 17900 RLU; under B12, 12600 RLU; under B13, 4450 RLU. The molecule B14 came in with an RLU of 28400 RLU. Consider B15, for which the RLU was determined as 18400 RLU. The same measure, in the same setting: for B16 the value was 18800 RLU; for B17, 15200 RLU; for B18, 39700 RLU. Still for that read-out and setting: under B19 stands 4550 RLU; under B20, 14400 RLU; under B21, 6500 RLU. Same read-out and setting: under B22 stands 5150 RLU; under B23, 3850 RLU. Turning to B24, the RLU turned out to be 2350 RLU. Still for that read-out and setting: under B25 stands 6550 RLU; under B26, 9950 RLU.

For the next assay the target is unchanged. The assay can be described thus: solution ELISA screen (luminescence). In general terms: An ELISA detects its analyte on a solid surface through an enzyme-linked reagent.
B27: the RLU was 26600 RLU. On the same count and under the same terms, under B28 stands 20400 RLU.
